# According to IntAct's records for PubMed 30026314:
# B1: Protein Wnt-7a (Homo sapiens), O00755 (parent)
# chain: MNRKARRCLGHLFLSLGMVYLRIGGFSSVVALGASIICNKIPGLAPRQRAICQSRPDAIIVIGEGSQMGLDECQFQFRNGRWNCSALGERTVFGKELKVGSREAAFTYAIIAAGVAHAITAACTQGNLSDCGCDKEKQGQYHRDEGWKWGGCSADIRYGIGFAKVFVDAREIKQNARTLMNLHNNEAGRKILEENMKLECKCHGVSGSCTTKTCWTTLPQFRELGYVLKDKYNEAVHVEPVRASRNKRPTFLKIKKPLSYRKPMDTDLVYIEKSPNYCEEDPVTGSVGTQGRACNKTAPQASGCDLMCCGRGYNTHQYARVWQCNCKFHWCCYVKCNTCSERTEMYTCK
# partner: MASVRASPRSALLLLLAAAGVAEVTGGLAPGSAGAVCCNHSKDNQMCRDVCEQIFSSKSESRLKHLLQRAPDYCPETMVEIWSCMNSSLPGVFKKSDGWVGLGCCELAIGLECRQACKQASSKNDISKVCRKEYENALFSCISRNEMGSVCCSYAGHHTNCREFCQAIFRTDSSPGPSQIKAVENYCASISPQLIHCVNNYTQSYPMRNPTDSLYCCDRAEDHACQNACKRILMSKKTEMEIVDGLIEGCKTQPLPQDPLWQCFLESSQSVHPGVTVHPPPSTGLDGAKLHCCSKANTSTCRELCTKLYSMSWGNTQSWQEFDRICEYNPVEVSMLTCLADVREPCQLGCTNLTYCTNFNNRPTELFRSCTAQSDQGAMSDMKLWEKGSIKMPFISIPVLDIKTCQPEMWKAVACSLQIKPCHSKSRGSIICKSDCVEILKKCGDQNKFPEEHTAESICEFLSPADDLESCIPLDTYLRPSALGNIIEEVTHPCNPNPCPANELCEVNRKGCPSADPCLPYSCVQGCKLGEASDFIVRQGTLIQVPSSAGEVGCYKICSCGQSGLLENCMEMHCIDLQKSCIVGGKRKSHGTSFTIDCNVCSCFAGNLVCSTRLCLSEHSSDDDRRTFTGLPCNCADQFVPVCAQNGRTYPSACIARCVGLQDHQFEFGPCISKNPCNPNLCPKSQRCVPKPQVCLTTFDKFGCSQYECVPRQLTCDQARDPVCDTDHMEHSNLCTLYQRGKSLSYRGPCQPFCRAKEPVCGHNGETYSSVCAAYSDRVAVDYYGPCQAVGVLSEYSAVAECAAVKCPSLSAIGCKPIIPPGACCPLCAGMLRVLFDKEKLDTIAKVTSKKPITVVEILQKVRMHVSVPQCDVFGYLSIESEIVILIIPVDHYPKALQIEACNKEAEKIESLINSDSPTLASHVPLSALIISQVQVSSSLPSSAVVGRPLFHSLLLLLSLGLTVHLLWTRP
# Variants of: B1
# Conditions: with reck_mouse Reck
row,Variant,effect of a mutation on the interaction
1,V241A;F251A;L252A;K262A,disrupting interaction strength
